The record followed here is article PMC12376267 (Chemistry (Weinheim an Der Bergstrasse, Germany), 2025).

Positions of bridges follow the written chain, without caps; N, C: chain ends.

The target of the experiment is T1, Recombinant mouse NELL2 (neural epidermal growth factor-like like 2) (mouse, UniProt Q61220 25-819).
T1 sequence (looked up): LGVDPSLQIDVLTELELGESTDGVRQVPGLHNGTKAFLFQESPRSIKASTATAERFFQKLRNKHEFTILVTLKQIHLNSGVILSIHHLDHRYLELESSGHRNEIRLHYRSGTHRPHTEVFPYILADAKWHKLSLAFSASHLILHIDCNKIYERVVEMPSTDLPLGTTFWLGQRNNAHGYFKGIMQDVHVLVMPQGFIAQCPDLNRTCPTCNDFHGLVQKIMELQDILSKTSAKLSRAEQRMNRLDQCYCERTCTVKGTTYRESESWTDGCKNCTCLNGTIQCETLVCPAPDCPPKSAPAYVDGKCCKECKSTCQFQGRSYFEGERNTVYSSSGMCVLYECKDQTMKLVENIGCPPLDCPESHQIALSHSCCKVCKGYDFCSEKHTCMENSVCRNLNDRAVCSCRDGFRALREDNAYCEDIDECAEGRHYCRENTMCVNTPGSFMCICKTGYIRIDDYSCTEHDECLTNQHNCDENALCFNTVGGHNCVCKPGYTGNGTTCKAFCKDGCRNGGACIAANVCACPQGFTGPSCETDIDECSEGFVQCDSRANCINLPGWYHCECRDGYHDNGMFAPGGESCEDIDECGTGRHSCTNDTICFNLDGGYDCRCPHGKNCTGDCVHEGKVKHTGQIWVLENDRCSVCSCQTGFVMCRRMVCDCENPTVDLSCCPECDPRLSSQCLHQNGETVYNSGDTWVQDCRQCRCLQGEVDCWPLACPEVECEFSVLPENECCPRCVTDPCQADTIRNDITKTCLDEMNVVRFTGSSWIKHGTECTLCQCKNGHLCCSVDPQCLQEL
As to the kind of experiment: SPR.

B1: Synthetic NICOL with the native SS bond pairing 3 (mouse NELL2-interacting cofactor for lumicrine signaling) (natural protein)
chain: EPATGSAVPAQSRPCVDCHAFEFMQRALQDLRKTAYSLDARTETLLLQAERRALCACWPAGR
modifications: disulfide 15-55, 18-57
For orientation: Kd means the equilibrium constant for the complex coming apart. The koff is the rate constant with which the complex falls apart. Usually kon stands for the second-order rate constant of association. For B1, the Kd turned out to be 61.7 nM, the koff amounted to 0.00134 s⁻¹ and the association rate constant (kon) worked out at 23500 M⁻¹ s⁻¹.

B2: Synthetic NICOL with the SS isomer 4 (mouse NICOL, non-native SS bond pairing) (natural protein)
chain: EPATGSAVPAQSRPCVDCHAFEFMQRALQDLRKTAYSLDARTETLLLQAERRALCACWPAGR
modifications: disulfide 15-57, 18-55
B2: the equilibrium dissociation constant (Kd) was found to be 145 nM, the koff was 0.00157 s⁻¹ and the kon is 13800 M⁻¹ s⁻¹.
